Values quoted from earlier work, collected in article PMC5152572.
Where two headings read alike, the source gives them in different places.

How the values were obtained:
[1] = molecular target: IL-1 receptor (Homo sapiens) (UniProt P14778)
[2] = molecular target: IL-1 receptor (Homo sapiens) (UniProt P14778); remark: listed apart in the source

UniProt P14778, sequence (P14778 18-569): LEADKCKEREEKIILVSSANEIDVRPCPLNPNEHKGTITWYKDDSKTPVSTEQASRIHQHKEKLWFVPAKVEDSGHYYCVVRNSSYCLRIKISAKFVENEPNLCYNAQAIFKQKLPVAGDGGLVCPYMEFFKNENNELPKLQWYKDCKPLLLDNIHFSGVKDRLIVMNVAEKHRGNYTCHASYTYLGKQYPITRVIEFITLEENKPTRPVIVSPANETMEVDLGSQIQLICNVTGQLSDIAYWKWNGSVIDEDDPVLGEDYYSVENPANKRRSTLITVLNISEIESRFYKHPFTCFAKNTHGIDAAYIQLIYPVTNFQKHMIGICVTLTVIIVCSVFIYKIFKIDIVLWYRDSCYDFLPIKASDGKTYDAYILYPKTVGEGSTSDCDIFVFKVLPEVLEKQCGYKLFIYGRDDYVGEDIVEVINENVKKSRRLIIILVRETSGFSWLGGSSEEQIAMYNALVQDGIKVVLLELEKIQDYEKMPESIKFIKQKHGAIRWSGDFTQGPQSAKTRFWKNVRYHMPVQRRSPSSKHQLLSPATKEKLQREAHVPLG

| Kd [1] | Kd [2] | Substance |
| --- | --- | --- |
| 4.5 nM | – | mature IL-1α mature (from UniProt P01583) |
| – | 4 nM | pro-IL-1α (from UniProt P01583) |
